Legend:
[1] = tested on: CC(C)[C@@H]1NC(=O)[C@H](C)OC(=O)[C@@H](C(C)C)NC(=O)[C@@H](C(C)C)OC(=O)[C@H](C(C)C)NC(=O)[C@H](C)OC(=O)[C@@H](C(C)C)NC(=O)[C@@H](C(C)C)OC(=O)[C@H](C(C)C)NC(=O)[C@H](C)OC(=O)[C@@H](C(C)C)NC(=O)[C@@H](C(C)C)OC1=O; test: (§1) TP_TRANSPORTER: ATP hydrolysis in reconstituted proteoliposomes; type: functional, subcellular
[2] = tested on: CC[C@H]1CN2CCc3cc(OC)c(OC)cc3[C@@H]2C[C@@H]1C[C@H]1NCCc2cc(OC)c(OC)cc21; test: as §1; type: functional, subcellular

“ATP-dependent translocase ABCB1 (Homo sapiens)” gave a Km [1] of 1 µM and a Km [2] of 6 µM.
